No end group written: not given here.

The target in one experiment is T1, CGRP receptor (Homo sapiens, UniProt O60894+Q16602).
T1 construct: expressed in transfected cells; host or cells: Human Kidney 293 cells (transient)
Description: [125I]CGRP binding to membranes from 293 cells (clone 22) stably transformed with CGRP receptor cDNA. The note with it: for rank order of potency in competition against [125I]CGRP binding: two to three independent experiments in duplicate. As to the method: FIG. 8. Saturation binding. […] Equilibrium binding was measured at 25° C. for 60 min. […] Data are from one experiment representative of three independent experiments done in duplicate. (B) Scatchard plot of [^125I] CGRP binding.
FIG. 9. Competition binding profiles. Competition curves for representative CGRP analogs against [^125I]CGRP binding to membranes prepared from 293 cells (clone 22 cells) stably transformed with the CGRP receptor cDNA. Each curve is representative of two to three independent experiments, each carried out in duplicate.

The target of experiment [1] is human CGRP receptor polypeptide (recombinant, expressed in 293 cells from construct pCDNHCGRPr) (human) (UniProt Q16602). Briefly: cell-based or functional assay.
human CGRP receptor polypeptide (recombinant, expressed in 293 cells from construct pCDNHCGRPr) (human), sequence (Q16602 22-461): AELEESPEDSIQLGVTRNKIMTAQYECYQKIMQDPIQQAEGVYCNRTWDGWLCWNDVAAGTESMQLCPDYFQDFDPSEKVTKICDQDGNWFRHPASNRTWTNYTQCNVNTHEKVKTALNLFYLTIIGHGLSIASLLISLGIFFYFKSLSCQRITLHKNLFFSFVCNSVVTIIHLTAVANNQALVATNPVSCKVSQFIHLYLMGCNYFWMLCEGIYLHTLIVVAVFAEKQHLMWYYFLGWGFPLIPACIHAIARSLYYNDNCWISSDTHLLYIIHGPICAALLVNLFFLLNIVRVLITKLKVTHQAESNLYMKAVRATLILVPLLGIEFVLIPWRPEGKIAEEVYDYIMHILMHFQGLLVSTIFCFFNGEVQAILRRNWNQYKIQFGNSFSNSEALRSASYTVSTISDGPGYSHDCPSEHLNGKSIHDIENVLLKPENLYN

T1 sequence (Q16602 23-461): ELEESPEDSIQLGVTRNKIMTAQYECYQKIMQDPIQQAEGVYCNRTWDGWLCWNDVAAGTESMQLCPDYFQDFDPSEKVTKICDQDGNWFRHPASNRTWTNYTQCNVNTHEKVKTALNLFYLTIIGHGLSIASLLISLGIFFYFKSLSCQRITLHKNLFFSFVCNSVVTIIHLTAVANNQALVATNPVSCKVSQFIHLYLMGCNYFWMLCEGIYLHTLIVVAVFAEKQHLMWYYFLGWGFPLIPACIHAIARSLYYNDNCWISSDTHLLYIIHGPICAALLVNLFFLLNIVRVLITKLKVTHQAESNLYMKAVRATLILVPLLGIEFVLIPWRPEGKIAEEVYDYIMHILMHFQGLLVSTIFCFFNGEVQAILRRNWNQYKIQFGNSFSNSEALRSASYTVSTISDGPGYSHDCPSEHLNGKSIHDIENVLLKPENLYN
T1 sequence (O60894 27-148): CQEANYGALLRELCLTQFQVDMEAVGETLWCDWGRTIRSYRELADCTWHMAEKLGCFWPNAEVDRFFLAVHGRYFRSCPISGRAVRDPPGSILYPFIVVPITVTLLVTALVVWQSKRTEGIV

`CC(C)C[C@H](NC(=O)CNC(=O)[C@H](C)NC(=O)[C@H](CC(C)C)NC(=O)[C@H](CCCNC(=N)N)NC(=O)[C@H](Cc1cnc(I)[nH]1)NC(=O)[C@@H](NC(=O)[C@@H](NC(=O)[C@@H]1CSSC[C@H](NC(=O)[C@H](C)N)C(=O)N[C@@H](CC(=O)O)C(=O)N[C@@H]([C@@H](C)O)C(=O)N[C@@H](C)C(=O)N[C@@H]([C@@H](C)O)C(=O)N1)C(C)C)[C@@H](C)O)C(=O)N[C@@H](CC(C)C)C(=O)N[C@@H](CO)C(=O)N[C@@H](CCCNC(=N)N)C(=O)N[C@@H](CO)C(=O)NCC(=O)NCC(=O)N[C@H](C(=O)N[C@H](C(=O)N[C@@H](CCCCN)C(=O)N[C@@H](CC(N)=O)C(=O)N[C@@H](CC(N)=O)C(=O)N[C@@H](Cc1ccccc1)C(=O)N[C@H](C(=O)N1CCC[C@H]1C(=O)N[C@H](C(=O)N[C@@H](CC(N)=O)C(=O)N[C@H](C(=O)NCC(=O)N[C@@H](CO)C(=O)N[C@@H](CCCCN)C(=O)N[C@@H](C)C(=O)N[C@@H](Cc1ccccc1)C(N)=O)C(C)C)[C@@H](C)O)C(C)C)C(C)C)C(C)C` [[^125I] CGRP]: the “Bmax (Scatchard plot, saturation binding)” value at CGRP receptor (equilibrium binding at 25° C. for 60 min) came to 89 fmol/mg protein.

In the case of “human CGRP (8-37) (from UniProt P06881 90-119) (peptide)”, the pA2 against CGRP-mediated cAMP accumulation in stably transformed 293 cells, 100 nM CGRP (8-37) in experiment [1] amounted to 7.8 pA2.

With “human amylin: islet amyloid polypeptide (IAPP or amylin), human (KCNTATCATQRLANFLVHSSNNFGAILSSTNVGSNTY)”, the “rank order of potency in competition against [125I]CGRP binding” value (“rank order of potency in competition” below) in the experiment with CGRP receptor is given as “>>>>”.

For the molecule “human calcitonin (hCT): human calcitonin”, the “rank order of potency in competition” value in the experiment with CGRP receptor was “>>>>”.

Turning to “porcine vasoactive intestinal peptide (VIP): porcine vasoactive intestinal peptide”, in the experiment with CGRP receptor, the “rank order of potency in competition” value is “>>>>”.

Turning to “salmon calcitonin (8-32): salmon calcitonin fragment (8-32) (VLGKLSQELHKLQTYPRTNTGSGTP; ends and bridges not checked)”, the “rank order of potency in competition” value in the experiment with CGRP receptor is “>>>>”.

Values taken from US20020164707A1, “Calcitonin gene related peptide receptor” (Human Genome Sciences, Inc., priority 1994, published 2002).
